For the experiment, the target named is EXP1 with G to L point mutations of the first glycine residues of the two GXXG motifs of the TM domain, Ty-tagged (P. falciparum) (UniProt Q8IIF0). The experiment is described as follows: cross-linking; in vivo: parasite cultures in PBS with 1% formaldehyde (PFA), 37°C, 30 minutes, quenched with 30 mM Tris-HCl pH 8.0; extracts of treated and untreated cells immunoblotted with α-Ty. In general terms: In western blotting, separated proteins are transferred to a membrane and probed.

Among the data in publication PMC6786648 are stoichiometry N values, retold here.

Substance “EXP1 with G to L point mutations of the first glycine residues of the two GXXG motifs of the TM domain, Ty-tagged (from UniProt Q8IIF0 1-162) (natural protein)” showed a stoichiometry N of 2.

As a reminder, the stoichiometry N is a count of units in the complex or per binding partner.
